# Source: PMC5400505, “Dissection of the interaction between the intrinsically disordered YAP protein and the transcription factor TEAD” (eLife, 2017)
# Target: wt hYAP (full length) (human, UniProt P46937 1-504)
# Assay: cell-based or functional assay
# Details: not given
# wt hYAP (full length), sequence (P46937 whole entry): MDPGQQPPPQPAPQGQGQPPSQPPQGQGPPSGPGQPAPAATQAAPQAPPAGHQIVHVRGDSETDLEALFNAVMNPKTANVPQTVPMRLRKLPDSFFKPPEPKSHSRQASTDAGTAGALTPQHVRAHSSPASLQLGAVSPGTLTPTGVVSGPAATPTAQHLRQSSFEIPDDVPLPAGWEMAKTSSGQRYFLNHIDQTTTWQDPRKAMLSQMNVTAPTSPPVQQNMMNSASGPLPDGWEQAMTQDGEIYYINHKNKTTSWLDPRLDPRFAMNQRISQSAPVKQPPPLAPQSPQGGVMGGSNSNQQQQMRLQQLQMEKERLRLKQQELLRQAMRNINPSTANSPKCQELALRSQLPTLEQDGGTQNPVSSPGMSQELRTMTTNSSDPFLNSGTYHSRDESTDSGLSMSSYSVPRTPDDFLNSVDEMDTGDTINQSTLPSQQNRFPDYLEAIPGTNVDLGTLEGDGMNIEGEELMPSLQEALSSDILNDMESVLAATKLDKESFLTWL
row,MCAT_Luc reporter luciferase activity in HEK293::MCAT_Luc cells co-transfected with wt hYAP; against wt hTEAD4,Binder
1,~4 fold reduction,"N-terminally V5-tagged hTEAD4 Asp272Ala (natural protein, human, UniProt Q15561 1-434, looked up) MEGTAGTITSNEWSSPTSPEGSTASGGSQALDKPIDNDAEGVWSPDIEQSFQEALAIYPPCGRRKIILSDEGKMYGRNELIARYIKLRTGKTRTRKQVSSHIQVLARRKAREIQAKLKDQAAKDKALQSMAAMSSAQIISATAFHSSMALARGPGRPAVSGFWQGALPGQAGTSHDVKPFSQQTYAVQPPLPLPGFESPAGPAPSPSAPPAPPWQGRSVASSKLWMLEFSAFLEQQQDPDTYNKHLFVHIGQSSPSYSDPYLEAVDIRQIYAKFPEKKGGLKDLFERGPSNAFFLVKFWADLNTNIEDEGSSFYGVSSQYESPENMIITCSTKVCSFGKQVVEKVETEYARYENGHYSYRIHRSPLCEYMINFIHKLKHLPEKYMMNSVLENFTILQVVTNRDTQETLLCIAYVFEVSASEHGAQHHIYRLVKE"

# Target: T1, N-Avitagged wt hTEAD4^217-434 (human, UniProt Q15561 217-434, acylated at Cys367 (100%))
# T1 construct: TEAD4 (TEA/ATTS domain transcription factor 4), human, residues 217-434; held on streptavidin (SA) chips; also called Wild type; source: purified; not shown: Avitag, N-terminal, kept
# Assay: SPR; N-Avitagged hTEAD4^217-434 proteins immobilised on Series S Sensor Chip SA, YAP^50-171 proteins as analyte; Biacore T200; 25°C (298 K); 50 mM HEPES, 100 mM KCl, 0.25 mM TCEP, 1 mM EDTA, 0.05% Tween 20, 0.05% BSA, 2% DMSO, pH 7.4; Kd from equilibrium data (Kd^eq); upper limit for Kd^eq 200 µM
# Details: both partners purified
# T1 sequence (Q15561 217-434): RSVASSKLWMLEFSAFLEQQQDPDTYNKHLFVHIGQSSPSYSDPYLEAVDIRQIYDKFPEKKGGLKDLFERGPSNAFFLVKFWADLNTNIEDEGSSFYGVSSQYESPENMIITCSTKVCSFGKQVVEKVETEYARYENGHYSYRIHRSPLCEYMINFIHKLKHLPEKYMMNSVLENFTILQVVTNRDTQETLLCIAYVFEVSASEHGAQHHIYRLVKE
row,Binder,Kd
1,"wt hYAP^50-171 (domain or fragment, human, UniProt P46937-1 50-171, looked up, YAP (Yes-associated protein), human, residues 50-171 of NM_001130145.2; also called hYAP wt; Wild type; source: E. coli NiCo21 (DE3), purified (HisTrap, tag cleaved by HRV 3C protease, Resource S, Superdex 75); not shown: His6, N-terminal, cleaved) AGHQIVHVRGDSETDLEALFNAVMNPKTANVPQTVPMRLRKLPDSFFKPPEPKSHSRQASTDAGTAGALTPQHVRAHSSPASLQLGAVSPGTLTPTGVVSGPAATPTAQHLRQSSFEIPDDV",0.018 µM
2,"hYAP^50-171 Arg89Ala (domain or fragment, human, UniProt P46937-1 50-171, looked up, YAP (Yes-associated protein), human, residues 50-171 of NM_001130145.2; also called hYAP Arg89Ala; R89A; source: E. coli NiCo21 (DE3), purified (HisTrap, tag cleaved by HRV 3C protease, Resource S, Superdex 75); not shown: His6, N-terminal, cleaved) AGHQIVHVRGDSETDLEALFNAVMNPKTANVPQTVPMRLAKLPDSFFKPPEPKSHSRQASTDAGTAGALTPQHVRAHSSPASLQLGAVSPGTLTPTGVVSGPAATPTAQHLRQSSFEIPDDV",27.4 µM
3,"hYAP^50-171 Leu65Ala (domain or fragment, human, UniProt P46937-1 50-171, looked up, YAP (Yes-associated protein), human, residues 50-171 of NM_001130145.2; also called hYAP Leu65Ala; source: E. coli NiCo21 (DE3), purified (HisTrap, tag cleaved by HRV 3C protease, Resource S, Superdex 75); not shown: His6, N-terminal, cleaved) AGHQIVHVRGDSETDAEALFNAVMNPKTANVPQTVPMRLRKLPDSFFKPPEPKSHSRQASTDAGTAGALTPQHVRAHSSPASLQLGAVSPGTLTPTGVVSGPAATPTAQHLRQSSFEIPDDV",0.794 µM
4,"hYAP^50-171 Leu68Ala (domain or fragment, human, UniProt P46937-1 50-171, looked up, YAP (Yes-associated protein), human, residues 50-171 of NM_001130145.2; also called hYAP Leu68Ala; source: E. coli NiCo21 (DE3), purified (HisTrap, tag cleaved by HRV 3C protease, Resource S, Superdex 75); not shown: His6, N-terminal, cleaved) AGHQIVHVRGDSETDLEAAFNAVMNPKTANVPQTVPMRLRKLPDSFFKPPEPKSHSRQASTDAGTAGALTPQHVRAHSSPASLQLGAVSPGTLTPTGVVSGPAATPTAQHLRQSSFEIPDDV",0.464 µM

# Second part, the binder after the results:
row,Kd,Binder
1,4.75 µM,"hYAP^50-171 Phe96Ala (domain or fragment, human, UniProt P46937-1 50-171, looked up, YAP (Yes-associated protein), human, residues 50-171 of NM_001130145.2; also called hYAP Phe96Ala; source: E. coli NiCo21 (DE3), purified (HisTrap, tag cleaved by HRV 3C protease, Resource S, Superdex 75); not shown: His6, N-terminal, cleaved) AGHQIVHVRGDSETDLEALFNAVMNPKTANVPQTVPMRLRKLPDSFAKPPEPKSHSRQASTDAGTAGALTPQHVRAHSSPASLQLGAVSPGTLTPTGVVSGPAATPTAQHLRQSSFEIPDDV"
2,30.6 µM,"hYAP^50-171 Leu91Ala (domain or fragment, human, UniProt P46937-1 50-171, looked up, YAP (Yes-associated protein), human, residues 50-171 of NM_001130145.2; also called hYAP Leu91Ala; source: E. coli NiCo21 (DE3), purified (HisTrap, tag cleaved by HRV 3C protease, Resource S, Superdex 75); not shown: His6, N-terminal, cleaved) AGHQIVHVRGDSETDLEALFNAVMNPKTANVPQTVPMRLRKAPDSFFKPPEPKSHSRQASTDAGTAGALTPQHVRAHSSPASLQLGAVSPGTLTPTGVVSGPAATPTAQHLRQSSFEIPDDV"
3,5.62 µM,"hYAP^50-171 Ser94Ala (domain or fragment, human, UniProt P46937-1 50-171, looked up, YAP (Yes-associated protein), human, residues 50-171 of NM_001130145.2; also called hYAP Ser94Ala; source: E. coli NiCo21 (DE3), purified (HisTrap, tag cleaved by HRV 3C protease, Resource S, Superdex 75); not shown: His6, N-terminal, cleaved) AGHQIVHVRGDSETDLEALFNAVMNPKTANVPQTVPMRLRKLPDAFFKPPEPKSHSRQASTDAGTAGALTPQHVRAHSSPASLQLGAVSPGTLTPTGVVSGPAATPTAQHLRQSSFEIPDDV"
4,2.08 µM,"hYAP^50-171 Met86Ala (domain or fragment, human, UniProt P46937-1 50-171, looked up, YAP (Yes-associated protein), human, residues 50-171 of NM_001130145.2; also called hYAP Met86Ala; source: E. coli NiCo21 (DE3), purified (HisTrap, tag cleaved by HRV 3C protease, Resource S, Superdex 75); not shown: His6, N-terminal, cleaved) AGHQIVHVRGDSETDLEALFNAVMNPKTANVPQTVPARLRKLPDSFFKPPEPKSHSRQASTDAGTAGALTPQHVRAHSSPASLQLGAVSPGTLTPTGVVSGPAATPTAQHLRQSSFEIPDDV"
5,6.45 µM,"hYAP^50-171 Phe69Ala (domain or fragment, human, UniProt P46937-1 50-171, looked up, YAP (Yes-associated protein), human, residues 50-171 of NM_001130145.2; also called hYAP Phe69Ala; source: E. coli NiCo21 (DE3), purified (HisTrap, tag cleaved by HRV 3C protease, Resource S, Superdex 75); not shown: His6, N-terminal, cleaved) AGHQIVHVRGDSETDLEALANAVMNPKTANVPQTVPMRLRKLPDSFFKPPEPKSHSRQASTDAGTAGALTPQHVRAHSSPASLQLGAVSPGTLTPTGVVSGPAATPTAQHLRQSSFEIPDDV"
6,26 µM,"hYAP^50-171 Phe95Ala (domain or fragment, human, UniProt P46937-1 50-171, looked up, YAP (Yes-associated protein), human, residues 50-171 of NM_001130145.2; also called hYAP Phe95Ala; source: E. coli NiCo21 (DE3), purified (HisTrap, tag cleaved by HRV 3C protease, Resource S, Superdex 75); not shown: His6, N-terminal, cleaved) AGHQIVHVRGDSETDLEALFNAVMNPKTANVPQTVPMRLRKLPDSAFKPPEPKSHSRQASTDAGTAGALTPQHVRAHSSPASLQLGAVSPGTLTPTGVVSGPAATPTAQHLRQSSFEIPDDV"
